The record followed here is patent US20230021388A1 (VELOSBIO, published 2023).

“And” between values parts separate entries of the source, which are not always exact repeats. Equal entries are not always repeated.

Assay [1] addresses T1, human ROR1 on live cells (human, UniProt Q01973 30-937).
T1 construct: ROR1-transfected MEC cells (~56,000 copies/cell) or JeKo-1 cells (~13,000 copies/cell); the cell line is named under assay; also called ROR1-transfected MEC cells; JeKo-1 cells
As to the kind of experiment: flow cytometry on live JeKo-1 cells, scFv detected with anti-HA-PE; x axis is Log [relative scFv expression], no concentration unit. For orientation: A flow cytometer gives signals particle by particle.

Assay [2] has as its target T2, recombinant human ROR1 extracellular domain (human, UniProt Q01973 30-406).
T2 construct: biotinylated for the filter lifts; also called huROR1-ECD; human ROR1-ECD
As to the kind of experiment: ELISA: huROR1-ECD coated on the plate, periplasmic scFv in serial dilution, anti-HA-HRP detection; x axis is Log [relative expression], no concentration unit. As to the method: scFv constructs were expressed and isolated from the periplasmic space using the same protocol that was used for Fabs (Example 2). In order to quantitate the relative levels of scFv expression of the three variants, a 96-well Costar-3366 plate was coated with 50 μl/well of 2 μg/mL anti-FLAG-unlabeled (Rockland, cat. #600-401-383) in PBS overnight at 4° C. The plate was washed three times with PBS containing 0.05% Tween 20 (PBS-T) and blocked with 100 μL of 5% M-P. The plate was washed once, then 50 μl/well of sample dilutions was added. Sample dilutions were performed with 5% M-P. The plates were incubated 1 h at 25° C., washed three times with PBS-T, and incubated with 50 μl/well of anti-HA HRP conjugate (Roche, cat. #12013819001), diluted 1,000-fold in 5% M-P for 1 h at 25° C. The plate was washed three times with PBS-T, and developed with 50 μl/well 1-Step Ultra TMB-ELISA (Thermo Scientific, Prod. #34028, Lot #SF2405221). The reaction was terminated by the addition of 2 N H2504 and the A450 was determined using a Spectramax plate reader.
Next, the binding of the isolated scFv variants to huROR1-ECD was assessed by ELISA as described in Example 2. A 96-well Costar-3366 plate was coated with 50 μl/well of 1 μg/mL human ROR-1 (AcroBiosystems, cat. #R01H522Y) in PBS overnight at 4° C. The plate was washed three times with PBS-T and blocked with 100 μL of 5% M-P. The plate was washed once, then 50 μl/well of 2-fold serial dilutions of sample was added. Sample dilutions were performed with 5% M-P. The plates were incubated 1 h at 25° C., washed three times with PBS-T, and incubated with 50 μl/well of anti-HA HRP conjugate (Roche, cat. #12013819001), diluted 1,000-fold in 5% M-P for 1 h at 25° C. […] The reaction was terminated by the addition of 2 N H₂SO₄ and the A450 was determined using a Spectramax plate reader. In order to compare the relative binding strength of the scFv variants, the expression levels as determined using the scFv ELISA described above were normalized to the Ab1 parental construct. […]
(In an ELISA, binding on a coated surface is turned into a signal by an enzyme label.)

Assay [3] addresses T2, recombinant human ROR1 extracellular …. Description: ELISA, soluble Fab on coated huROR1-ECD.
For assay [4] the target is unchanged. Description: ELISA, soluble Fab on coated huROR1-ECD. The source holds these as a separate data set.
The target is the same in assay [5]. As to the kind of experiment: ELISA, soluble Fab on coated huROR1-ECD. The protocol:
(§1) The previously described filter lift assay provides a visual, qualitative assessment of antigen binding (Example 1). In order to assess the ROR1 binding activity of Ab1 Fab in a more quantitative fashion, an ELISA assay was developed. A 96-well Costar-3366 plate was coated with 50 μL/well of 1 μg/mL human ROR1-ECD (ACROBiosystems, cat. #RO1-H522y) in PBS overnight at 4° C. The plate was rinsed once with PBS-T and blocked with 100 μL/well of 5% M-P for 1 h at 25° C. Fab samples were serially diluted 3-fold using 5% M-P and 50 μL/well was incubated for 1 h at 25° C. The plate was washed three times with PBS-T and 50 μL/well anti-human kappa, and HRP conjugate (Southern Biotech, cat. #2060-05) diluted 10,000-fold in 5% M-P was added for 1 h at 25° C. In certain assays (extended wash format), the plate was placed in large volumes (up to 1 L) of PBS-T and incubated, with mixing, for 2-5 h prior to the addition of anti-human kappa, HRP conjugate. The plate was washed three times with PBS-T, and developed with 50 μL/well 1-Step Ultra TMB-ELISA (Thermo Scientific, cat. #34028). The reaction was terminated by the addition of 2 N H2504 and the A450 was determined using a Spectramax plate reader.
The source holds these as a separate data set.

Assay [6] deals with T1, human ROR1 on live cells. Description: flow cytometry on live JeKo-1 cells, Fab detected with anti-HA-PE. The protocol: (§2) ROR1 binding was quantitated using flow cytometry and 2.5E5 ROR1-transfected MEC cells or JeKo-1 cells for each concentration of Fab variant. The cells were placed in 50 μL of PBS with 2% FBS. Next, the cells were diluted with an equal volume of 2× stock of the test Fab variant and the cells and antibody were co-incubated on ice for 20 min. The cells were then washed 3 times with 300 μL of FACS buffer and were resuspended in 100 μL of a 70-fold dilution of anti-HA.11-PE conjugate, clone 16B12 (BioLegend, cat. #901517) and incubated on ice with reduced light for 20 min. Subsequently, the cells were washed 3 times with 300 μL of FACS buffer and fixed with 2% paraformaldehyde for 10 min at 25° C. The cells then were washed 2 times with 300 μL of FACS buffer and analyzed on a Miltenyi MACSQuant Analyzer.

For assay [7], the target named is T2, recombinant human ROR1 extracellular …. Description: ELISA, soluble Fab on coated huROR1-ECD; WT control beside variant G27N (…, SEQ ID NO: 15). As to the method: as §1
The target is the same in assay [8]. Description: ELISA with prolonged wash, soluble Fab on coated huROR1-ECD. The protocol:
as §1
(§3) Subsequently, the libraries were screened by capture lift to identify the strongest binding variants. The identity of the variants was determined by DNA sequencing and the relative affinities were characterized using an ELISA (described in Example 2) modified to enable further discrimination between the highest affinity variants. Specifically, following the initial incubation with soluble Fab, the plates were washed for a prolonged time (>1 h) in large volumes of PBS-T. The plates were then developed as described in Example 2.

The target is the same in assay [9]. Described as above. The protocol: as §1, §3
This is another data set of the same source.

For assay [10] the target is unchanged. The description is as above. As to the method: as §1, §3
The source holds these as a separate data set.

Assay [11] deals with T1, human ROR1 on live cells. As to the kind of experiment: flow cytometry on live ROR1-transfected MEC cells, Fab detected with anti-HA-PE. The protocol:
as §2
Initially, three anti-ROR1 Fab variants, each differing from the parental antibody by a single amino acid, were characterized for binding to human ROR1 using live ROR1-transfected MEC cells. […] The binding profiles of the variants on live ROR1-transfected MEC cells were consistent with the binding profiles obtained using recombinant huROR1-ECD and an ELISA (see Example 3, FIG. 5).

The target in assay [12] is T2, recombinant human ROR1 extracellular …. Description: ELISA with prolonged wash (>1 h in PBS-T): huROR1-ECD coated on the plate, soluble Fab titrated, anti-human kappa-HRP detection. The protocol: as §1, with “The plate was washed three times with PBS-T, and developed with 50 μL/well 1-Step Ultra TMB-ELISA (Thermo Scientific, cat. #34028).” left out
Subsequently, the libraries were screened by capture lift to identify the strongest binding variants. The identity of the variants was determined by DNA sequencing and the relative affinities were characterized using an ELISA (described in Example 2) modified to enable further discrimination between the highest affinity variants. […]

T2 sequence (Q01973 30-406 limits assumed): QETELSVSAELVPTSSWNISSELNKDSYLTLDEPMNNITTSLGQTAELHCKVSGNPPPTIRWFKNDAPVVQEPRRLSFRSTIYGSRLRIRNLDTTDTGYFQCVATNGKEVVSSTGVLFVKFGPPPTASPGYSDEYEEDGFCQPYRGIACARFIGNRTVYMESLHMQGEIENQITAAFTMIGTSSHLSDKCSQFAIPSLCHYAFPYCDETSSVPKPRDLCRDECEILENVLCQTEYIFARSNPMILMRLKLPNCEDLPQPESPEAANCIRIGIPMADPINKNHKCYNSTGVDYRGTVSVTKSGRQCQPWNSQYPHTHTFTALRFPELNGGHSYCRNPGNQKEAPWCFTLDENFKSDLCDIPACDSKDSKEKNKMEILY
T1 sequence (Q01973 30-937 limits assumed): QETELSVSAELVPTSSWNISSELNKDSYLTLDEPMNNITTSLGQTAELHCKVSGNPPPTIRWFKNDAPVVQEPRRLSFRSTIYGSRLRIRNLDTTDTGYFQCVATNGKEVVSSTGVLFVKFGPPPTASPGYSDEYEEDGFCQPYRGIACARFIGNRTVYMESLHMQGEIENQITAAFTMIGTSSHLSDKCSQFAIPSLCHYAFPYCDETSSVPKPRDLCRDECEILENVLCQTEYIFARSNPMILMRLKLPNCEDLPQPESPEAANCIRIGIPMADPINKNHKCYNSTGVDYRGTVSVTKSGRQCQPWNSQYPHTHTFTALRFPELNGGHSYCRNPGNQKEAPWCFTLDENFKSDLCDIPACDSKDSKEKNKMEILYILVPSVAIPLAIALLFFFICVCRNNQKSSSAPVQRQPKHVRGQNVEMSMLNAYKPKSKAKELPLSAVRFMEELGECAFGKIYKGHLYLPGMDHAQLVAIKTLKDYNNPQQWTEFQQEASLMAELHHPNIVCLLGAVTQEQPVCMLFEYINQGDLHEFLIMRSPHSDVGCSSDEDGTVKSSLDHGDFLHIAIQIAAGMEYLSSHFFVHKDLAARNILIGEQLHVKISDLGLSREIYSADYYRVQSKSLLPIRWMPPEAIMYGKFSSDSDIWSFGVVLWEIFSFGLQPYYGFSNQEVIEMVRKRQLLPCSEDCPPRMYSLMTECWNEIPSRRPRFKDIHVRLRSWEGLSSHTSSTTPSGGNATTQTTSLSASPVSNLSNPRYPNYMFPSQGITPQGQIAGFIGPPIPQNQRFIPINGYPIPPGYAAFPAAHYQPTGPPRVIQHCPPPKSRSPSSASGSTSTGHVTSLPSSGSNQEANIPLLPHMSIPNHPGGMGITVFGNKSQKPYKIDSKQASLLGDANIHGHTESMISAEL

B1: H1 T32A Ab1 scFv (scFv)
scFv: QVQLQESGPGLVKPSQTLSLTCTVSGYAFAAYNIHWVRQAPGQGLEWMGSFDPYDGGSSYNQKFKDRLTISKDTSKNQVVLTMTNMDPVDTATYYCARGWYYFDYWGHGTLVTVSSGGGGSGGGGSGGGGSADIVMTQTPLSLPVTPGEPASISCRASKSISKYLAWYQQKPGQAPRLLIYSGSTLQSGIPPRFSGSGYGTDFTLTINNIESEDAAYYFCQQHDESPYTFGEGTKVEIKRDYKDDDDKGKPGSGKPGSGKPGSGKPGSYPYDVPDYAS
notes: VH - linker - VL with C-terminal FLAG and HA tags; also called scFv variant H1 T32A; Ab1.1
Take B1: the binding result (in the assay with human ROR1 on live cells [1]; in assay [2]) was “binds” throughout.

B2: Ab1 scFv (scFv)
scFv: QVQLQESGPGLVKPSQTLSLTCTVSGYAFTAYNIHWVRQAPGQGLEWMGSFDPYDGGSSYNQKFKDRLTISKDTSKNQVVLTMTNMDPVDTATYYCARGWYYFDYWGHGTLVTVSSGGGGSGGGGSGGGGSADIVMTQTPLSLPVTPGEPASISCRASKSISKYLAWYQQKPGQAPRLLIYSGSTLQSGIPPRFSGSGYGTDFTLTINNIESEDAAYYFCQQHDESPYTFGEGTKVEIKRDYKDDDDKGKPGSGKPGSGKPGSGKPGSYPYDVPDYAS
notes: the pelB leader is not part of the entry; also called parental Ab1 scFv; Ab1 parental construct
For the molecule B2, the binding result (with human ROR1 on live cells [1]; in assay [2]) was “binds” throughout.

B3: H1 T32A/L2 T69R Ab1 scFv (scFv)
scFv: QVQLQESGPGLVKPSQTLSLTCTVSGYAFAAYNIHWVRQAPGQGLEWMGSFDPYDGGSSYNQKFKDRLTISKDTSKNQVVLTMTNMDPVDTATYYCARGWYYFDYWGHGTLVTVSSGGGGSGGGGSGGGGSADIVMTQTPLSLPVTPGEPASISCRASKSISKYLAWYQQKPGQAPRLLIYSGSRLQSGIPPRFSGSGYGTDFTLTINNIESEDAAYYFCQQHDESPYTFGEGTKVEIKRDYKDDDDKGKPGSGKPGSGKPGSGKPGSYPYDVPDYAS
notes: VH - linker - VL with C-terminal FLAG and HA tags; also called scFv variant H1 T32A+L2 T69R; Ab1.2
Regarding B3, the binding result (with human ROR1 on live cells [1]; in [2]) was “binds” throughout.

B4: Ab1 Fab (Fab, V domains shown)
VH: QVQLQESGPGLVKPSQTLSLTCTVSGYAFTAYNIHWVRQAPGQGLEWMGSFDPYDGGSSYNQKFKDRLTISKDTSKNQVVLTMTNMDPVDTATYYCARGWYYFDYWGHGTLVTVSS
VL: DIVMTQTPLSLPVTPGEPASISCRASKSISKYLAWYQQKPGQAPRLLIYSGSTLQSGIPPRFSGSGYGTDFTLTINNIESEDAAYYFCQQHDESPYTFGEGTKVEIK
notes: Soluble Fab from an M13 phage vector in E. coli: VL + kappa constant region, VH + human CH1 + His and HA tags; also called WT; parental Fab
In the case of B4, the Kd was 3 nM in [3]; 3.2 nM and 6 nM in assay [4]; 7 nM in [5]; 3.2 nM in assay [7]. Further, the “EC50 (read off the curve)” value in the assay with human ROR1 on live cells [6] was about 10 nM.

B5: Ab1 Fab variant H1 T32A (Fab, V domains shown)
VH: QVQLQESGPGLVKPSQTLSLTCTVSGYAFAAYNIHWVRQAPGQGLEWMGSFDPYDGGSSYNQKFKDRLTISKDTSKNQVVLTMTNMDPVDTATYYCARGWYYFDYWGHGTLVTVSS
VL: DIVMTQTPLSLPVTPGEPASISCRASKSISKYLAWYQQKPGQAPRLLIYSGSTLQSGIPPRFSGSGYGTDFTLTINNIESEDAAYYFCQQHDESPYTFGEGTKVEIK
notes: Fab
Take B5: in assay [3], the “fold increase of binding against Ab1” value is about 4 fold. In addition, the Kd in [4] is 1.5 nM; in assay [8], 3 nM and 2.7 nM; in [9], 3 nM; in [10], 3.6 nM and 1.6 nM and 2.7 nM. Further, the “EC50 (read off the curve)” value is about 2 nM with human ROR1 on live cells [6], about 0.05 µg/mL with human ROR1 on live cells [11] and about 3 nM in assay [12].

As usually defined, the Kd is the concentration at which binding is half-saturated. Usually EC50 (read off the curve) stands for the concentration needed to bring the measured effect to its halfway point.
